B1: Rho guanine nucleotide exchange factor 7 (Mus musculus), Q9ES28-2 (parent)
chain: MNSAEQTVTWLITLGVLESPKKTISDPEVFLQASLKDGVVLCRLLERLLPGTIEKVYPEPRNESECLSNIREFLRACGASLRLETFDANDLYQGQNFNKVLSSLVTLNKVTADIGLGSDSVCARPSSHRIKSFDSLGSQSSHSRTSKLLQSQYRSLDMTDNTNSQLVVRAKFNFQQTNEDELSFSKGDVIHVTRVEEGGWWEGTHNGRTGWFPSNYVREIKPSEKPVSPKSGTLKSPPKGFDTTAINKSYYNVVLQNILETEHEYSKELQSVLSTYLRPLQTSDKLSSANTSYLMGNLEEISSFQQVLVQSLEECTKSPEAQQRVGGCFLSLMPQMRTLYLAYCANHPSAVSVLTEHSEDLGEFMETKGASSPGILVLTTGLSKPFMRLDKYPTLLKELERHMEDYHPDRQDIQKSMTAFKNLSAQCQEVRKRKELELQILTEPIRSWEGDDIKTLGSVTYMSQVTIQCAGSEEKNERYLLLFPNLLLMLSASPRMSGFIYQGKLPTTGMTITKLEDSENHRNAFEISGSMIERILVSCTSQQDLHEWVEHLQKQTKVTSVSNPTIKPHSVPSHTLPSHPLTPSSKHADSKPVALTPAYHTLPHPSHHGTPHTTISWGPLEPPKTPKPWSLSCLRPAPPLRPSAALCYKEDLSKSPKTMKKLLPKRKPERKPSDEEFAVRKSTAALEEDAQILKVIEAYCTSAKTRQTLNSSSRKESAPQVLLPEEEKIIVEETKSNGQTVIEEKSLVDTVYALKDEVQELRQDNKKMKKSLEEEQRARKDLEKLVRKVLKNMNDPAWDETNL
partner: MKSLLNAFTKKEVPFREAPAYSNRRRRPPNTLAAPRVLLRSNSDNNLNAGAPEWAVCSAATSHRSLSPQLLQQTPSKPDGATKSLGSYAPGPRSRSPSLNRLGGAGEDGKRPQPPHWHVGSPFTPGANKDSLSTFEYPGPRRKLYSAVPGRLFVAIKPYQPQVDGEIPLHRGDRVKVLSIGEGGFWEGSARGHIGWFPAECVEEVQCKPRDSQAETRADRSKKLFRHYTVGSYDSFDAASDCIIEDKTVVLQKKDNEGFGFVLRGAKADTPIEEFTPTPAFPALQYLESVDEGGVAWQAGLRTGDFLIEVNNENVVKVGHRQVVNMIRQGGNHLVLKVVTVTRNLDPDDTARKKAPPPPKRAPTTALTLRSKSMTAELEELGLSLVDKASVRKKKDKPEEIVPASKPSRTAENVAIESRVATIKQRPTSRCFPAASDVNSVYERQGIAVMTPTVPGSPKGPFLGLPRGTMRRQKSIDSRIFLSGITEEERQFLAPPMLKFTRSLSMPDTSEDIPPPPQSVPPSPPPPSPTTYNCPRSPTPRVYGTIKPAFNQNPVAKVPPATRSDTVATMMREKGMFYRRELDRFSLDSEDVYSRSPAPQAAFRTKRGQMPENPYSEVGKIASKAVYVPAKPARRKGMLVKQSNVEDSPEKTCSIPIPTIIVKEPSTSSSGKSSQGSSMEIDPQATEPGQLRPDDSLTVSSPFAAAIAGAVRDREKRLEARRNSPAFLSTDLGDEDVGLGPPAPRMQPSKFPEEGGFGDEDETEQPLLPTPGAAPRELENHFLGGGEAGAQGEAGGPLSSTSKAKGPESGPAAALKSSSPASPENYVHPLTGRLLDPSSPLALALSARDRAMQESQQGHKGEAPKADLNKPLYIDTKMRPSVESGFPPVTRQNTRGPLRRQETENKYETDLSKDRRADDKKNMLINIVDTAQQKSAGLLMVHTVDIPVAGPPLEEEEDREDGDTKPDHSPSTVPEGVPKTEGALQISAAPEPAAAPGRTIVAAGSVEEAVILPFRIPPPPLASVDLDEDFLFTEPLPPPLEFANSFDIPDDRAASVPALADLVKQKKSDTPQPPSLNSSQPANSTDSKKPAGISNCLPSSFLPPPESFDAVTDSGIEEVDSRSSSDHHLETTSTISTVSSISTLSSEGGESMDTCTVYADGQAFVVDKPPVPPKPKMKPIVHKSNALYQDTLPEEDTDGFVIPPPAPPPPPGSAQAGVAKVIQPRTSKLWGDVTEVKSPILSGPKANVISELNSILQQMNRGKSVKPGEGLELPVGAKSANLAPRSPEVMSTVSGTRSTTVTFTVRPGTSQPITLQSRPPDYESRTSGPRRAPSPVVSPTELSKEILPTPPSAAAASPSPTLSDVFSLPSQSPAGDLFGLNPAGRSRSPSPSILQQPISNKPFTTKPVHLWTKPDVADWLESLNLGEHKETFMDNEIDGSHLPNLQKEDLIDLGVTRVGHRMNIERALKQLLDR
B2: Rho guanine nucleotide exchange factor 7 (Mus musculus), Q9ES28-2 (parent)
chain: B1 chain

One test covers variants of B1. To be noted: with shan2_rat Shank2, Q9QX74.
As for L646A, the “effect of a mutation on the interaction” value is on record as “disrupting interaction”.

Another test covers variants of B2. The following applies: with shan1_rat Shank1, Q9WV48.
Chain of shan1_rat Shank1, Q9WV48 (Q9WV48 whole entry): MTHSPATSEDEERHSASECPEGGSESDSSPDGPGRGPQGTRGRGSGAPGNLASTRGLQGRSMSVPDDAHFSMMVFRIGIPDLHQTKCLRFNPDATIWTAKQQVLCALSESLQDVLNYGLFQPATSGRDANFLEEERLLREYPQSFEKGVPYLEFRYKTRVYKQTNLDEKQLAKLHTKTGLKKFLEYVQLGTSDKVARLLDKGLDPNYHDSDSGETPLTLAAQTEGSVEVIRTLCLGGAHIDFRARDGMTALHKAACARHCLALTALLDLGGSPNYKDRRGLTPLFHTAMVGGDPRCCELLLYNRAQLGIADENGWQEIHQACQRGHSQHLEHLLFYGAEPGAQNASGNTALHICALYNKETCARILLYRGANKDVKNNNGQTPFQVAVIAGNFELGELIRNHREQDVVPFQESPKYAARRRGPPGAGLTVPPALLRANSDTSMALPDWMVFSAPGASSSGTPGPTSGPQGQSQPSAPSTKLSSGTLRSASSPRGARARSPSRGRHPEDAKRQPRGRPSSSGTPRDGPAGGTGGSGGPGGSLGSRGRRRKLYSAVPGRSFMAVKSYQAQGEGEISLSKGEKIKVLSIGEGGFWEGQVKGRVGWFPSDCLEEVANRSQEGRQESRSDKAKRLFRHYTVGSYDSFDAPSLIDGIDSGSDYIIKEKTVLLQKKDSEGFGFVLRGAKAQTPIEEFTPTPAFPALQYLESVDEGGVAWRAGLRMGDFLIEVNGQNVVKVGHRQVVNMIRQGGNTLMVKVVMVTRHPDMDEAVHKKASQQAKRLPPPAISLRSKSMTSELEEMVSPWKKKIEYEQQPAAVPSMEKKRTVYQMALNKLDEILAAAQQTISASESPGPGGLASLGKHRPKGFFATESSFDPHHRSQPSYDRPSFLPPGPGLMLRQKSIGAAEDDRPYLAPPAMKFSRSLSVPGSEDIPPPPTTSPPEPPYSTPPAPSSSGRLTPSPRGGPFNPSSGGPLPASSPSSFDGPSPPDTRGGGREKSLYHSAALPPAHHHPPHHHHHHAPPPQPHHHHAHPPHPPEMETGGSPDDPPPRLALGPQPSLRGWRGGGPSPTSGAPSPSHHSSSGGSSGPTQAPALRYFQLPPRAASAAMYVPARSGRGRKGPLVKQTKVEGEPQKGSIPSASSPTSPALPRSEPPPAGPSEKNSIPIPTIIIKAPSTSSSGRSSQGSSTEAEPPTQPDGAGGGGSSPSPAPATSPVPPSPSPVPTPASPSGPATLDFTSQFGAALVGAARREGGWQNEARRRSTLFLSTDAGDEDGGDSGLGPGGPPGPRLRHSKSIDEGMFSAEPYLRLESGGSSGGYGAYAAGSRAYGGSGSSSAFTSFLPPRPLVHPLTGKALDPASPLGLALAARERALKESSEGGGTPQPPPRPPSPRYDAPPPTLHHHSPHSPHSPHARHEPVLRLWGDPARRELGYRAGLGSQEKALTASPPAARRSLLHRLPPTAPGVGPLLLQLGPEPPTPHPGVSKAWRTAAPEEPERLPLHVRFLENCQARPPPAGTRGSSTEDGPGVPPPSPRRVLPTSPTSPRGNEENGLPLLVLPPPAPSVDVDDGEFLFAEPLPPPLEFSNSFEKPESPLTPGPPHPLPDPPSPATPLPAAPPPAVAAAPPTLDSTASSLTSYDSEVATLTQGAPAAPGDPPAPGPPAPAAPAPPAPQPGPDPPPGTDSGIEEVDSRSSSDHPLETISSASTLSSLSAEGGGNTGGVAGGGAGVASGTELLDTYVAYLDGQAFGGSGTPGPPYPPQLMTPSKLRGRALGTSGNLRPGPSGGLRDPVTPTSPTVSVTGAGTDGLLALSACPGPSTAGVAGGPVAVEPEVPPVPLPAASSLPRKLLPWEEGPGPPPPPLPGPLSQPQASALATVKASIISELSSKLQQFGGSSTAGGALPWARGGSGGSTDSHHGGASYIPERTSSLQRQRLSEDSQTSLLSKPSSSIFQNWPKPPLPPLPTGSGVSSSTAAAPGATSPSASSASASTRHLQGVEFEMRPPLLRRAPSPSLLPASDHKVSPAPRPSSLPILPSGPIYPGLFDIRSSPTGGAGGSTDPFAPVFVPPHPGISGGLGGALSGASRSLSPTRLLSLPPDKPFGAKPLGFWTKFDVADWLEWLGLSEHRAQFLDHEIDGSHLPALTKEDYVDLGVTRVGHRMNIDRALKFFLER
Take L646A: the “effect of a mutation on the interaction” value is given as “disrupting interaction”.

(Values after IntAct's records for PubMed 12626503.)
